From the supplement of paper PMC10126150 come the findings set out here.

± gives the standard deviation of the averaged measurements.
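Also: ATP exposure 15 min at 22 °C before imaging.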

This data set has as its system ATP. The experiment in a line: switch fluorescence ratio, 500 uM ATP over buffer (Cy3 cluster intensity, sum of 5 cycles each) (fold (ratio)); higher = stronger signal-on switching upon ATP binding; sequences stand for … in TCGTCGGCAGCGTCAGATGTGTATAAGAGACAGTTTTTTTTTTTTTTTTTTTTTTTTT…TC. As to conditions: aptamer strand: ATP DNA aptamer (quencher-CACCTGGGGGAGTATTGCGGAGGAAGG + anchor), 100 nM annealed; ATP concentration: 500 uM. The essentials: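 Switching-strand clusters labelled with Cy3 on a modified Illumina MiSeq flow-cell were annealed to 100 nM quencher-labelled ATP aptamer, imaged in selection buffer, and re-imaged after 15 min with 500 uM ATP at 22 °C. This was done over five cycles with NaOH stripping and re-annealing in between. The fluorescence ratio is summed target-cycle over summed buffer-cycle Cy3 intensity per cluster, averaged per switch-domain sequence, excluding clusters outside 100-1000 RFU.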
Turning to CGTGCGGTGG, the switch fluorescence ratio was determined as 1.01 ± 0.043.
TCGCAGTGGG: the switch fluorescence ratio amounted to 1.12 ± 0.034.
Under TATAAGGTGT stands 1.23 ± 0.11; under CAGGTAGGGT, 1.01 ± 0.052; under AGGGGTTAAG, 0.954 ± 0.024.
With GAACGATGTT, the switch fluorescence ratio was found to be 0.9787 ± 0.0032.
The value for AGATGTATTT was 0.997 ± 0.032; that for TTATAAGTTA was 0.9814 ± 0.0043.
The value for ATTTATTCTA was 0.976 ± 0.036; that for GTTTCTTAGC was 0.998 ± 0.081.
Take AATAATGTTG: the switch fluorescence ratio was 0.998 ± 0.015.
Consider ATACAAATTT, for which the switch fluorescence ratio turned out to be 0.995 ± 0.047.
With TTCTGCTATC, the switch fluorescence ratio stood at 1.79 ± 0.12.
With TGGGGGCTTA, the switch fluorescence ratio is 0.99 ± 0.059.
For the sequence CGGCTCCCGC, the switch fluorescence ratio came out at 1.046 ± 0.0084.
In the case of TTTGCAAACT, the switch fluorescence ratio worked out at 0.994 ± 0.017.
As to GTTGGTTACA, the switch fluorescence ratio is 1.008 ± 0.0065.
Under TGTGTGCTGA stands 1.02 ± 0.028; under ATCGAGAGGG, 1.01 ± 0.04.
Turning to TCCGGTACTG, the switch fluorescence ratio came to 1.16 ± 0.074.
Under TGCTGCTCAG stands 1.01 ± 0.032; under GCATTTTTCT, 0.982 ± 0.031; under TTATATTTAT, 1.03 ± 0.069.
The value for TGCAATTCGT was 1.13 ± 0.033; that for CGGCATAGAT was 1.04 ± 0.029.
The value for GAAGTTTTGT was 1.016 ± 0.0088; that for GATGAAAGGC was 1.046 ± 0.0017; that for GGAGTTTTGA was 0.982 ± 0.02.
GCGGGCGGCC: the switch fluorescence ratio came out at 0.9812 ± 0.0082.
AGGTTTTGGA: the switch fluorescence ratio was 0.98 ± 0.021.
For GAGGGTAGTT, the switch fluorescence ratio amounted to 1.031 ± 0.0055.
Take GGTTTGTGGG: the switch fluorescence ratio worked out at 0.968 ± 0.013.
Under TGTGGCGTTT stands 1.04 ± 0.059.
As to TTACGGATAA, the switch fluorescence ratio came out at 1.49 ± 0.67.
As for CGGTGTGTGG, the switch fluorescence ratio was 0.999 ± 0.032.
With GCGTAAGTGC, the switch fluorescence ratio stood at 1.092 ± 0.006.
As for GATGAATTGC, the switch fluorescence ratio was 1.01 ± 0.033.
The value for TTAGGGATCT was 0.9904 ± 0.0042; that for AAATTACAGT was 0.99493 ± 0.00079.
In the case of TATAATTAGG, the switch fluorescence ratio came to 0.98 ± 0.027.
In the case of CGAAAGTTTA, the switch fluorescence ratio came out at 1.008 ± 0.0021.
TGAAAGATGT: the switch fluorescence ratio amounted to 1.01 ± 0.035.
With TGTTTATTGA, the switch fluorescence ratio worked out at 0.989 ± 0.013.
For TTCTAAGGTC, the switch fluorescence ratio was found to be 0.978 ± 0.036.
On to GACCTGTAAT, for which the switch fluorescence ratio is 1.025 ± 0.0013.
Turning to GCATCGGGCC, the switch fluorescence ratio was 0.981 ± 0.026.
Consider ATGTTAACTA, for which the switch fluorescence ratio is 0.985 ± 0.065.
For the sequence TTTTCCGACA, the switch fluorescence ratio is 2.28 ± 1.5.
Regarding CGGGGGGTGG, the switch fluorescence ratio was found to be 1 ± 0.039.
In the case of CAAGCTTAAA, the switch fluorescence ratio came out at 0.9729 ± 0.009.
Regarding TAACTTTGGC, the switch fluorescence ratio was 0.9536 ± 0.0091.
Turning to ACTCGTTTAT, the switch fluorescence ratio was found to be 0.99 ± 0.013.
On to CTATTATTCT, for which the switch fluorescence ratio was determined as 0.983 ± 0.018.
CACAGGGGGG: the switch fluorescence ratio was 1.19 ± 0.34.
With TCGGGGATAG, the switch fluorescence ratio was found to be 0.979 ± 0.047.
For the sequence AACAGTATTT, the switch fluorescence ratio was found to be 1.04 ± 0.011.
Under TCCGGGGGGC stands 1.15 ± 0.18; under TTATGATTCT, 0.972 ± 0.025.
On to ATGGGCTGG, for which the switch fluorescence ratio was determined as 0.975 ± 0.031.
Under GTTTAGAGTC stands 1 ± 0.037.
In the case of CGTTCTATCT, the switch fluorescence ratio came out at 1 ± 0.079.
As to AACCACTTTA, the switch fluorescence ratio turned out to be 1.06 ± 0.021.
TTAAAAAGGG: the switch fluorescence ratio worked out at 0.995 ± 0.029.
Turning to TATGCTAAAA, the switch fluorescence ratio worked out at 0.965 ± 0.038.
The value for GGGTTATTAT was 1.01 ± 0.019; that for CGTCGGGGCG was 1.02 ± 0.036; that for TTCGTAACGC was 1.03 ± 0.038.
Regarding AAAGGGCCTT, the switch fluorescence ratio amounted to 1.003 ± 0.0024.
For CGGTGGGTTG, the switch fluorescence ratio came to 0.969 ± 0.053.
With CTGGGTGTGC, the switch fluorescence ratio was 1.01 ± 0.02.
As for AATCATTGTA, the switch fluorescence ratio amounted to 1.01 ± 0.039.
TTGGGGTGCC: the switch fluorescence ratio worked out at 1.01 ± 0.018.
The value for GGCTGGGGGA was 1.01 ± 0.024; that for AGGTGGAGGG was 1 ± 0.032; that for TTTGAATTTC was 0.988 ± 0.021.
As to ATCAATTTAA, the switch fluorescence ratio was determined as 0.976 ± 0.039.
The value for TTGTGTGGGA was 1.02 ± 0.026.
The value for GCAGCTGGCT was 1.02 ± 0.11.
